B1: recombinant human IL-26 (ligand, UniProt Q9NPH9 22-171, looked up)
chain: KHKQSSFTKSCYPRGTLSQAVDALYIKAAWLKATIPEDRIKNIRLLKKKTKKQFMKNCQFQEQLLSFFMEDVFGQLQLQGCKKIRFVEDFHSLRQKLSHCISCASSAREMKSITRMKRIFYRIGNKGIYKAISELDILLSWIKKLLESSQ
notes: In some functional rows the IL-26 is natural IL-26 in TH17 cell supernatants, as said in the readout; also called rhIL-26; AK155

Columns and labels:
[1] = target: the molecule itself; assay: small angle X-ray scattering (SAXS) of rhIL-26, self-association
Method: IL-26 was suspended in 16 mM sodium phosphate buffer, pH 6.5, 560 mM NaCl, 8% glycerol, 2 mM β-mercaptoethanol and concentrated to 1.1 mg/ml. Data were recorded at the ALS, Berkeley, Calif., beamline 12.3.1. (SIBYLS) at 10° C. using a wavelength of 1 A, for values of the momentum transfer vector q=(4π sin θ)/λ between 0.01 and 0.32 Å-1. The same sample was sequentially exposed to X-rays for 0.5s, 1s and 5s. Samples containing buffer only were measured before and after protein samples. The buffer contributions were subtracted from protein scattering data using the ogre new software program available at SIBYLS. Data were not affected by radiation damage as indicated by a constant Rg of the Guinier region for subsequent sample exposures. A combined SAXS pattern was obtained through scaling and merging selected regions of buffer-subtracted scattering pattern for the 0.5s, 1s and 5s exposures. Data between q=0.01 and 0.13 Å-1 were analyzed using PRIMUS, SASREF and DAMMIF of the ATSAS software package.

recombinant human IL-26 = target: B1; assay: ELISA screen of hybridomas

| binding result (recombinant human IL-26) | Binder | binding result [1] |
| --- | --- | --- |
| – | B1 | binds |
| binds | anti-IL-26 mouse monoclonal antibody clone 142-84-B1 (antibody, V domains shown, Mouse hybridoma antibody, IgG1; also called clone 84) VH: QVQLQQSGAELVRPGASVTLSCKASGFTFPDYEIHWVRQTPVHGLEWIGGIDPETGDTANNQKFKGKATLTADTSSSTAYMELRSLTSEDSAVYYCTRFYGSFDYWDQGTTLTVSS VL: NIMMTQSPSSLAVSAGEKVTLSCKSSQSVLYSSNQKNYLAWYQQKPGQSPKLLIYWASTRESGVPDRFTGSGSGTDFTLTISSVQAEDLAVYYCHQYLSSYTFGGGTKLEIK | – |
